Like-named read-outs stand apart in the source and are kept apart here.
T1: Dpo4 (Sulfolobus solfataricus P2 DNA polymerase IV) (Saccharolobus solfataricus, UniProt Q97W02)
T1 sequence (Q97W02 1-352): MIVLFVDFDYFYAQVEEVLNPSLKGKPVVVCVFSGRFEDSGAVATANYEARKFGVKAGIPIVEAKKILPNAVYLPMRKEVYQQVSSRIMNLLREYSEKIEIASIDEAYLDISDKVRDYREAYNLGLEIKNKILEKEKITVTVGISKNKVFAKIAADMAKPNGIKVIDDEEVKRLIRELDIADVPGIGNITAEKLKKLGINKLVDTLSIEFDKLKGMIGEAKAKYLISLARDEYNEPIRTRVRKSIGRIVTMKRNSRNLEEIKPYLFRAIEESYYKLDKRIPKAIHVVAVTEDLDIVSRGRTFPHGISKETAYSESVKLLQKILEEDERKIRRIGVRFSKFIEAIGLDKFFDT

T2: Dpo4 (P2 DNA polymerase IV), wild type, Cy5-labeled (Sulfolobus solfataricus P2, UniProt Q97W02 1-352)
T2 sequence: T1 sequence (Q97W02 1-352)

B1: 12Cy3 primer-template (dsDNA)
DNA 1: GATGAAAATGAAGGATA
DNA 2: CTCATAATAGCTATCCTTCATTTTCATC
modifications: amino-C6-dT in template
B2: 8Cy3 primer-template (dsDNA)
DNA 1: GATGAAAATGAAG
DNA 2: CTCATAATAGCTATCCTTCATTTTCATC
modifications: amino-C6-dT in template
B3: 7Cy3 primer-template (dsDNA)
DNA 1: GATGAAAATGAA
DNA 2: CTCATAATAGCTATCCTTCATTTTCATC
modifications: amino-C6-dT in template
B4: 9Cy3 primer-template (dsDNA)
DNA 1: GATGAAAATGAAGG
DNA 2: CTCATAATAGCTATCCTTCATTTTCATC
modifications: amino-C6-dT in template
B5: 11Cy3 primer-template (dsDNA)
DNA 1: GATGAAAATGAAGGAT
DNA 2: CTCATAATAGCTATCCTTCATTTTCATC
modifications: amino-C6-dT in template
B6: 10Cy3 primer-template (dsDNA)
DNA 1: GATGAAAATGAAGGA
DNA 2: CTCATAATAGCTATCCTTCATTTTCATC
modifications: amino-C6-dT in template

How the values were obtained:
[1] = biological target: T1, Dpo4 (Sulfolobus solfataricus P2 DNA polymerase IV); experiment: smFRET histogram shift and dissociation rate of the Dpo4-DNA complex; type: binding; conditions: 1 mM; incorrect nucleotide; 8Cy3 primer-template; Ca2+, pH 7.5, 21 °C
[2] = biological target: T2, Dpo4 (P2 DNA polymerase IV), wild type, …; experiment: smFRET
[3] = biological target: T2, Dpo4 (P2 DNA polymerase IV), wild type, …; experiment: smFRET; remark: listed apart in the source
[4] = biological target: T2, Dpo4 (P2 DNA polymerase IV), wild type, …; experiment: smFRET; remark: listed apart in the source

Molecule | binding result [2] | other results
Nc1ccn([C@H]2C[C@H](O)[C@@H](COP(=O)(O)OP(=O)(O)OP(=O)(O)O)O2)c(=O)n1 [dCTP] |  | smFRET histogram shift and dissociation rate of the Dpo4-DNA complex [1]: both dCTP and dTTP induced a low FRET shift identical to that observed
B1 | binds | 
B2 |  | Kd [3]: 30 ± 10 nM
B3 | binds | 
B4 |  | binding result [4]: binds
B5 | binds | 
B6 | binds | 

Reference: paper PMC3936744 (Nucleic Acids Research, 2013)
